Molecular target: biotinylated gp120 165-182 peptide (HIV-1 (AE.A244))
Assay: BLI

B1: CH59 unmutated ancestor (CH59-UA) Fab (Fab, V domains shown)
VH: EVQLVESGGGLVQPGRSLRLSCAASGFTFDDYAMHWVRQAPGKGLEWVSGISWNSGSIGYADSVKGRFTISRDNAKNSLYLQMNSLRAEDTALYYCAKDSPRGELPFDYWGQGTLVTVSS
VL: SYELTQPPSVSVSPGQTARITCSGDALPKKYAYWYQQKSGQAPVLVIYEDSKRPSGIPERFSGSSSGTMATLTISGAQVEDEADYYCYSTDSSGNHRVFGGGTKLTVL
With B1 the Kd was 0.5 µM.
